Results taken from US20190309079A1 (Regeneron, published 2019).

T1: extracellular domain of human LEPR (amino acids 22-839 of P48357, Isoform B) with N-terminal myc-myc tag, … (human, UniProt P48357 22-839, GPI anchor at the C-terminus)
T1 construct: also called HEK293/Mycx2-hLepR(Ecto)-GPI anchored cells
T1 sequence: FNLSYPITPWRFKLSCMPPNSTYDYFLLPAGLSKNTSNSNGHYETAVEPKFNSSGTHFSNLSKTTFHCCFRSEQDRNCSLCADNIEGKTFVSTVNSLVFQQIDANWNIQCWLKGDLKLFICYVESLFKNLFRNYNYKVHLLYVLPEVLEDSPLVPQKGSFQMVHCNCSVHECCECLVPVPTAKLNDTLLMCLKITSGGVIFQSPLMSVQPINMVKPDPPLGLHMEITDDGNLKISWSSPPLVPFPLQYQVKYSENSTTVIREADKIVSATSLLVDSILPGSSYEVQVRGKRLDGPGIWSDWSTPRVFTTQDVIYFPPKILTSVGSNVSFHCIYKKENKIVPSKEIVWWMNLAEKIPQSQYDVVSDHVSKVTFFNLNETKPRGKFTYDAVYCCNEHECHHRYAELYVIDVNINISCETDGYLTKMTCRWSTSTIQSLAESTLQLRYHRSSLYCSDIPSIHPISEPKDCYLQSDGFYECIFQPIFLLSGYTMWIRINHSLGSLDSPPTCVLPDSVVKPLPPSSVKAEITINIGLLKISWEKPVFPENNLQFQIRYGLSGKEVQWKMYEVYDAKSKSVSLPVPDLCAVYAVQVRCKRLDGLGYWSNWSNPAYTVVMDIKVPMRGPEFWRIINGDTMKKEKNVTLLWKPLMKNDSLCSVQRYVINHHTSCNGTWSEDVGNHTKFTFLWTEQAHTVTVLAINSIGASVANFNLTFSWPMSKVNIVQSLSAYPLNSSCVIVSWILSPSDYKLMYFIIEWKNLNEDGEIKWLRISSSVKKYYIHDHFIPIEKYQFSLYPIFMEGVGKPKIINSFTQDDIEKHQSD

T2: human LEPR Ig (D3)-MMH (human, UniProt P48357 340-427, limits assumed)
T2 construct: domain: Ig (D3)
T2 sequence (looked up): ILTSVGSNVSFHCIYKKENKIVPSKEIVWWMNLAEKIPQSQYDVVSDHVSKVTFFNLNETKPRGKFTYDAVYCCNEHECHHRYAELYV

T3: human LEPR CRH1 (D1)-MMH (human, UniProt P48357 22-229, limits assumed)
T3 construct: domain: CRH1 (D1)
T3 sequence (looked up): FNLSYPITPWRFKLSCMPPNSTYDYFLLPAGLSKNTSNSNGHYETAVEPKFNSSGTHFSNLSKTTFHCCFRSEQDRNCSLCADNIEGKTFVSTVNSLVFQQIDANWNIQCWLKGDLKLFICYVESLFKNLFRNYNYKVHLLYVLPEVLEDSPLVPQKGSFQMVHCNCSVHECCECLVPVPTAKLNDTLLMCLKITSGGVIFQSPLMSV

T4: human LEPR CRH1-Ig (D1,D2,D3)-MMH (human, UniProt P48357 22-427, limits assumed)
T4 construct: domain: CRH1-Ig (D1,D2,D3); also called human LEPR CRH1 (D1,D2,D3)-MMH
T4 sequence (looked up): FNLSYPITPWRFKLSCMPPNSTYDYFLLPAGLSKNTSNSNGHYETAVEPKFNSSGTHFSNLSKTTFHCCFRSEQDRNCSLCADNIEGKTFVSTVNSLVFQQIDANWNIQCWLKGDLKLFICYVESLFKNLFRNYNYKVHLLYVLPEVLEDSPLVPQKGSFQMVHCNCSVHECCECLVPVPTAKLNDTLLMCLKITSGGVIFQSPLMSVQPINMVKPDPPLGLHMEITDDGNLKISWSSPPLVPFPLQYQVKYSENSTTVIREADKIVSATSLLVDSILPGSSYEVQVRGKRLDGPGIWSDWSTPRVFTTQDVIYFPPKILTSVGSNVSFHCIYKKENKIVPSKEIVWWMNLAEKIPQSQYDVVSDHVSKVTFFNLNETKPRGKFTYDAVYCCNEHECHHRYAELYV

B1: H4H18445P2 (antibody, human IgG4, V domains shown)
VH: QVQLQESGPGLVKPSQTLSLTCTVSGGSISSGGDYWSWIRQLPGKGLEWIGYIYYSGSAYYNPSLKSRGTISIDTSKNQFSLKLTSVTAADTAVYFCVKLRFLEWFLGGWFGPWGQGTLVTVSS
VL: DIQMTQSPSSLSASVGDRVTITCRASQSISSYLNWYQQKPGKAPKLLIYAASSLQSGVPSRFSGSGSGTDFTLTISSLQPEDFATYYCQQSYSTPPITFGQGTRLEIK
notes: human IgG4 Fc
B2: H4H16650P2 (antibody, V domains shown)
VH: QVQLVESGGGVVQPGKSLRLSCVASGFTFSSDAMYWVRQAPGKGLEWVAVIYYDGNYQYYEDSVKGRFTISRDNSQNTLDLQMNSLRVDDTAVYFCARLNWDYWYLDLWGRGTLVTVSS
VL: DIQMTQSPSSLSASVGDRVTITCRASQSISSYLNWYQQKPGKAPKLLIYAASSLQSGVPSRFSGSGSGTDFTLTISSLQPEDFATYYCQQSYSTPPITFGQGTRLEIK
B3: H4H18417P2 (antibody, V domains shown)
VH: QVQLVESGGGVVQPGRSLRLSCAASGFTFSTYGMHWVRQAPGKGLEWVSVISYDESNKYYADSVKGRFTISRDNSKNALYLQMNSLRNEDTAVYYCARDRPFGLVTGWFDPWGQGTLVTVSS
VL: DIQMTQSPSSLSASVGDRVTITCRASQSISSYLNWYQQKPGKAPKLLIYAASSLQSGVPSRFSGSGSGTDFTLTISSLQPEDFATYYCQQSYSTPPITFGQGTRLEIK
B4: H4H18438P2 (antibody, V domains shown)
VH: QVQLVESGGGVVQPGRSLRLSCAASGFSFNTYGMHWVRQAPGKGLEWVTIIWYDGSIKYYADSVKGRFTISRDNSKNTLYLQMNSLRAEDTAVYYCARGGYSGYLYFDYWGQGTLVTVSS
VL: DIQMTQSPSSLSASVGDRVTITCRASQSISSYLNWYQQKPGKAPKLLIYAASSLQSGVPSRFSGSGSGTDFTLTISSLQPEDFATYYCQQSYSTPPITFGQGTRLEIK
B5: H4H18449P2 (antibody, human IgG4, V domains shown)
VH: EVQLVESGGGLVQPGGSLRLSCVASGFTFNKYDMHWVRQTTGKGLEWVSGIDTDGDTYYPGSVKGRFTISRENAENSLYLQMNGLRVGDTAVYYCARWPWSGFYGAFDIWGQGTMVTVSS
VL: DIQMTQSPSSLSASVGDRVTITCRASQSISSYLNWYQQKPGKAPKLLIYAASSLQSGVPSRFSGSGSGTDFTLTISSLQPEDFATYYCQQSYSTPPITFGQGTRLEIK
notes: human IgG4 Fc
B6: H4H16679P2 (antibody, V domains shown)
VH: QVQLVESGGGVVQPGRSLRLSCTASGFTFSSYAMYWVRQAPGKGLEWVSVIYYDGSYKYYADSVKGRFTISRDNSKNTLYLQMDSLRAEDTAVYYCASYNWNYWYFDFWGRGTLVTVSS
VL: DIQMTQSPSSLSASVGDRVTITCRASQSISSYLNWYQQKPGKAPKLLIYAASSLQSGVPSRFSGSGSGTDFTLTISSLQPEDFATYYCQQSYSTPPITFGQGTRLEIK
B7: H4H17319P2 (antibody, V domains shown)
VH: QVQLVESGGSVVQPGRSLRLSCAASGFTFSTYAMYWVRQTPGKGLEWVAVLYSDGSNKYYIDSVKGRFTISRDTSTNTLYLQMSSLRADDSALYYCARLNWDYWYFDLWGRGTLVTVSS
VL: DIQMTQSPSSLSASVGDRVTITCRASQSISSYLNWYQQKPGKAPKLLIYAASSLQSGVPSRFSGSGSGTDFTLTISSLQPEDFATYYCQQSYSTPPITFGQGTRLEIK
notes: also called REGN4461
B8: H4H18446P2 (antibody, human IgG4, V domains shown)
VH: EVQLVESGGGLVQPGGSLRLSCAASGFTFSNYGMTWVRQAPGKGLEWVSAITGGGGSTYYSNSVKGRFTISRDNSKNTVYLRMNSVRAEDTAVYYCAKYKWNFVDDWGQGTTVTVSS
VL: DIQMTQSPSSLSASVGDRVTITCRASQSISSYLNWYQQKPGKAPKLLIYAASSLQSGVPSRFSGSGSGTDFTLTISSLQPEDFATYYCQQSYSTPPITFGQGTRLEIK
notes: human IgG4 Fc
B9: H4H17321P2 (antibody, V domains shown)
VH: QVQLVESGGGVVQPGRSLRLSCEASGFSSSDNAMYWVRQAPGKGLEWVSVIYHDGSYKYYEDSVKGRFTIARDNSKNTLYLQMNSLRAEDTAVYYCARYNWNHWYFDVWGRGTLVTVSS
VL: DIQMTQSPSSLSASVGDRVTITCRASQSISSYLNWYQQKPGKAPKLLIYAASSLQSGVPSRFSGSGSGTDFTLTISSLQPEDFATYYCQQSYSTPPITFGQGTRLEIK

Each binder was assayed against T1, extracellular domain of human LEPR … (assay: FACS, 10 nM Ab, HEK293/hLEPR-GPI, no added Leptin).
Protocol: (§1) For the FACS analysis, HEK293 parental cells and HEK293/hLEPR-GPI cells were dissociated and plated onto 96-well v-bottom plates at 5×10⁵ cells/well in PBS containing 2% FBS (FACS buffer). […] Cells were subsequently fixed using BD CytoFix™ (Becton Dickinson, #554655), filtered, and analyzed on a HyperCyt Flow Cytometer (Beckman Coulter). Unstained and secondary antibody alone controls were also tested for all cell lines. The results were analyzed using ForeCyt (IntelliCyt) and FlowJo version 10 software to determine the geometric means of fluorescence for viable cells. The geometric mean of fluorescence for each sample was then normalized to the geometric mean of unstained cells to obtain relative binding per condition referred to as “binding ratios”, and these binding ratios were recorded for each antibody tested.

Binding Ratio (normalized to unstained) [fold] | Binder
2020 | B1
2420 | B2
1840 | B3
1490 | B4
3370 | B5
2060 | B6

These binders were tested against T1, extracellular domain of human LEPR … (assay: FACS, 10 nM Ab, HEK293/hLEPR-GPI, 1 uM Leptin).
Protocol: as §1

Binding Ratio (normalized to unstained) [fold] | Binder
2490 | B1
3120 | B2
2600 | B3
2410 | B4
3110 | B5
2220 | B6

Each binder was assayed against T2, human LEPR Ig (D3)-MMH (assay: Luminex, myc-captured protein on beads).
Protocol: (§2) Aliquots of microspheres with immobilized anti-myc monoclonal antibodies, prepared as described above, were added individually to 1 mL of the each of these protein supernatants. The microspheres were gently mixed, incubated for two hours at 25° C., washed twice with 1 mL of DBPS, centrifuged to remove the supernatant and finally resuspended in 1 mL of DPBS buffer. […] of anti-myc IgG coupled microspheres from individual reactions with full length human LEPR and with each of the human LEPR domain proteins were withdrawn and mixed together in 3.6 mL of PBS+20 mg/mL BSA+0.05% sodium azide (blocking buffer).
(§3) From this mixed pool, 75 μL of microspheres were plated per well on a 96 well filter plate (Millipore, Cat. No: MSBVN1250) and mixed with 25 μL of individual anti-human LEPR monoclonal antibodies (0.5 or 5 μg/mL), incubated for two hours at 25° C. and then washed twice with 200 μL of DPBS with 0.05% Tween 20 (washing buffer). […] After 30 minutes, the samples were washed twice with 200 µL of washing buffer and resuspended in 150 μL of wash buffer. The Median Fluorescence intensity (MFI) of the microspheres was measured in a Luminex Analyzer.

Luminex MFI [MFI] | Binder
8 | B7
25 | B8
19 | B1
10 | B2
17 | B3
30 | B4
24 | B5
14 | B6
7 | B9

The binders below were run against T3, human LEPR CRH1 (D1)-MMH (assay: Luminex, myc-captured protein on beads).
Protocol: as §2, §3

Luminex MFI [MFI] | Binder
8 | B7
17 | B8
12 | B1
8 | B2
10 | B3
13 | B4
20 | B5
12 | B6
9 | B9

What follows are binders tested against T4, human LEPR CRH1-Ig (D1,D2,D3)-MMH (assay: Luminex, myc-captured protein on beads).
Protocol: as §2, §3

Luminex MFI [MFI] | Binder
938 | B7
22 | B1
2560 | B2
3330 | B3
6570 | B4
2060 | B5
2800 | B6
1750 | B9

The binders below were run against T5, human LEPR extracellular domain expressed with a C-terminal myc-myc-hexahistidine tag (hLEPR.mmh) (human, UniProt P48357 22-839) (assay: Luminex, myc-captured protein on beads).
T5 construct: tag included in the entry; also called human LEPR-MMH; monomeric human LEPR
Protocol: as §2, §3

Luminex MFI [MFI] | Binder
3300 | B7
10500 | B8
6570 | B1
7600 | B2
4890 | B3
6250 | B4
7980 | B5
7510 | B6
4700 | B9
